Experiments:
HLA-A*01:01 = experiment: IEDB peptide-MHC binding, purified MHC/direct/fluorescence; filed as Kd, often an IC50 or EC50 that approximates it; ≥ and ≤ were set here for values at or beyond the usual limits of such assays
HLA-A*02:01 [1] = experiment: as above
HLA-A*03:01 = experiment: as above
HLA-A*11:01 = experiment: as above
HLA-A*24:03 = experiment: as above
HLA-A*26:01 [2] = experiment: as above
HLA-A*31:01 = experiment: as above
HLA-A*69:01 [3] = experiment: as above
HLA-B*07:02 = experiment: as above; conditions: source organism: Vibrio cholerae
HLA-B*08:01 [4] = experiment: as above; conditions: source organism: Vibrio cholerae
HLA-B*15:01 [5] = experiment: as above
HLA-B*27:05 = experiment: as above
HLA-B*40:01 = experiment: as above
HLA-B*44:02 = experiment: as above; conditions: source organism: Vibrio cholerae
HLA-B*58:01 = experiment: as above
HLA-A*02:50 = experiment: IEDB peptide-MHC binding, purified MHC/competitive/fluorescence; filed as Kd, often an IC50 or EC50 that approximates it; ≥ and ≤ were set here for values at or beyond the usual limits of such assays
HLA-C*04:01 = experiment: IEDB peptide-MHC binding, purified MHC/direct/fluorescence; filed as Kd, often an IC50 or EC50 that approximates it; ≥ and ≤ were set here for values at or beyond the usual limits of such assays
HLA-C*14:02 = experiment: as above; conditions: source organism: Vibrio vulnificus YJ016
HLA-A*30:01 [6] = experiment: IEDB peptide-MHC binding, purified MHC/competitive/fluorescence; filed as Kd, often an IC50 or EC50 that approximates it; ≥ and ≤ were set here for values at or beyond the usual limits of such assays; conditions: source organism: Human immunodeficiency virus 1
HLA-C*03:03 = experiment: IEDB peptide-MHC binding, purified MHC/direct/fluorescence; filed as Kd, often an IC50 or EC50 that approximates it; ≥ and ≤ were set here for values at or beyond the usual limits of such assays
HLA-C*08:02 = experiment: as above
HLA-C*12:03 = experiment: as above; conditions: source organism: Mycobacterium tuberculosis variant bovis BCG str. Pasteur 1173P2
HLA-B*08:01 [7] = experiment: IEDB peptide-MHC binding, purified MHC/competitive/fluorescence; filed as Kd, often an IC50 or EC50 that approximates it; ≥ and ≤ were set here for values at or beyond the usual limits of such assays; conditions: source organism: Influenza A virus (A/Harbin/1/1988(H1N2))
HLA-A*02:03 = experiment: IEDB peptide-MHC binding, purified MHC/direct/fluorescence; filed as Kd, often an IC50 or EC50 that approximates it; ≥ and ≤ were set here for values at or beyond the usual limits of such assays
HLA-A*02:11 = experiment: as above
HLA-A*02:12 = experiment: as above
HLA-A*02:16 = experiment: as above
HLA-A*02:19 = experiment: as above
HLA-A*23:01 = experiment: as above
HLA-A*29:02 = experiment: as above; conditions: source organism: Zaire ebolavirus
HLA-A*68:02 = experiment: as above
HLA-A*02:01 [8] = experiment: IEDB peptide-MHC binding, purified MHC/competitive/fluorescence; filed as Kd, often an IC50 or EC50 that approximates it; ≥ and ≤ were set here for values at or beyond the usual limits of such assays
HLA-A*26:01 [9] = experiment: as above
HLA-A*69:01 [10] = experiment: as above
HLA-B*15:01 [11] = experiment: as above; conditions: source organism: Zaire ebolavirus
HLA-B*18:01 = experiment: as above
HLA-B*27:03 = experiment: as above
HLA-B*39:01 = experiment: as above
HLA-B*46:01 = experiment: as above; conditions: source organism: Zaire ebolavirus
HLA-B*51:01 = experiment: as above
HLA-B*57:01 = experiment: as above; conditions: source organism: Zaire ebolavirus
HLA-C*05:01 = experiment: IEDB peptide-MHC binding, purified MHC/direct/fluorescence; filed as Kd, often an IC50 or EC50 that approximates it; ≥ and ≤ were set here for values at or beyond the usual limits of such assays; conditions: source organism: Brucella abortus S19
HLA-A*30:01 [12] = experiment: as above; conditions: source organism: Kurkino virus
[13] = source organism: Vibrio cholerae
[14] = source organism: Mycobacterium tuberculosis variant bovis BCG str. Pasteur 1173P2
[15] = source organism: Haemophilus influenzae
[16] = source organism: Zaire ebolavirus
[17] = source organism: Cryptosporidium parvum Iowa II
[18] = source organism: Bacillus anthracis str. A0193
[19] = source organism: Brucella abortus 2308
[20] = source organism: Orthohantavirus dobravaense

How did the Kd (HLA-A*01:01; [13]) turn out when ALYWALMES was run?
Its Kd is ≥ 20 µM.

What about the Kd (HLA-A*02:01 [1]; [13]) of the same sequence?
Its Kd is 0.021 µM.

What about the Kd (HLA-A*03:01; [13]) of the same sequence?
Its Kd is ≥ 20 µM.

And the Kd (HLA-A*11:01; [13])?
Its Kd is ≥ 20 µM.

And the Kd (HLA-A*24:03; [13])?
The Kd was ≥ 20 µM.

What about the Kd (HLA-A*26:01 [2]; [13]) of the same sequence?
The Kd was ≥ 20 µM.

What about the Kd (HLA-A*31:01; [13]) of the same sequence?
Its Kd is ≥ 20 µM.

And the Kd (HLA-A*69:01 [3]; [13])?
Its Kd is ≥ 20 µM.

And the Kd (HLA-B*07:02)?
The Kd was ≥ 20 µM.

And the Kd (HLA-B*08:01 [4])?
Its Kd is ≥ 20 µM.

What about the Kd (HLA-B*15:01 [5]; [13]) of the same sequence?
The Kd was ≥ 20 µM.

And the Kd (HLA-B*27:05; [13])?
Its Kd is ≥ 20 µM.

And the Kd (HLA-B*40:01; [13])?
The Kd was ≥ 20 µM.

What about the Kd (HLA-B*44:02) of the same sequence?
Its Kd is ≥ 20 µM.

And the Kd (HLA-B*58:01; [13])?
The Kd was ≥ 20 µM.

And the Kd (HLA-A*02:50; source organism: Vibrio cholerae 2740-80)?
Its Kd is 0.0002 µM.

Which Kd (HLA-A*24:03; source organism: Vibrio vulnificus) does the source give for AYFLEAQEM here?
Its Kd is 0.0036 µM.

And the Kd (HLA-C*04:01; source organism: Vibrio vulnificus YJ016)?
The Kd was ≥ 20 µM.

And the Kd (HLA-C*14:02)?
Its Kd is ≤ 0.001 µM.

For EELRSLYNTV, which Kd (HLA-A*30:01 [6]) is on record?
Its Kd is ≥ 20 µM.

What does the source list for FLADYGWRL?
Kd (HLA-A*69:01 [3]; source organism: Mycobacterium tuberculosis): 0.663 µM; Kd (HLA-C*03:03; [14]): 0.026 µM; Kd (HLA-C*08:02; [14]): 0.057 µM; Kd (HLA-C*12:03): 0.413 µM

With FLADYRGKT as the sequence, how does the Kd (HLA-A*01:01; [15]) read?
The Kd was ≥ 20 µM.

And the Kd (HLA-A*02:01 [1]; [15])?
The Kd was 1.36 µM.

And the Kd (HLA-A*03:01; [15])?
Its Kd is ≥ 20 µM.

What about the Kd (HLA-A*11:01; [15]) of the same sequence?
The Kd was ≥ 20 µM.

What about the Kd (HLA-A*26:01 [2]; [15]) of the same sequence?
Its Kd is ≥ 20 µM.

What about the Kd (HLA-A*31:01; [15]) of the same sequence?
The Kd was ≥ 20 µM.

What about the Kd (HLA-A*69:01 [3]; [15]) of the same sequence?
Its Kd is ≥ 20 µM.

And the Kd (HLA-B*15:01 [5]; [15])?
Its Kd is ≥ 20 µM.

And the Kd (HLA-B*27:05; [15])?
Its Kd is ≥ 20 µM.

And the Kd (HLA-B*40:01; [15])?
The Kd was ≥ 20 µM.

What about the Kd (HLA-B*58:01; [15]) of the same sequence?
Its Kd is ≥ 20 µM.

And the Kd (HLA-A*02:50; source organism: Haemophilus influenzae R2846)?
The Kd was 0.0019 µM.

Which results are given for IAPWYAFAL?
Kd (HLA-C*08:02; source organism: Influenza A virus (A/Harbin/1/1988(H1N2))): 3.34 µM; Kd (HLA-B*08:01 [7]): 7.56 µM

Which results are given for LTDRELLLL?
Kd (HLA-A*01:01; source organism: Sudan ebolavirus - Uganda (2000)): 0.255 µM; Kd (HLA-A*02:03; [16]): ≥ 20 µM; Kd (HLA-A*02:11; [16]): ≥ 20 µM; Kd (HLA-A*02:12; [16]): ≥ 20 µM; Kd (HLA-A*02:16; [16]): ≥ 20 µM; Kd (HLA-A*02:19; [16]): ≥ 20 µM; Kd (HLA-A*03:01; [16]): ≥ 20 µM; Kd (HLA-A*23:01; [16]): ≥ 20 µM; Kd (HLA-A*24:03; [16]): ≥ 20 µM; Kd (HLA-A*29:02): ≥ 20 µM; Kd (HLA-A*68:02; [16]): ≥ 20 µM; Kd (HLA-A*02:01 [8]; [16]): ≥ 20 µM; Kd (HLA-A*26:01 [9]; [16]): ≥ 20 µM; Kd (HLA-A*69:01 [10]; [16]): ≥ 20 µM; Kd (HLA-B*15:01 [11]): ≥ 20 µM; Kd (HLA-B*18:01; [16]): ≥ 20 µM; Kd (HLA-B*27:03; [16]): ≥ 20 µM; Kd (HLA-B*39:01; [16]): ≥ 20 µM; Kd (HLA-B*46:01): ≥ 20 µM; Kd (HLA-B*51:01; [16]): ≥ 20 µM; Kd (HLA-B*57:01): ≥ 20 µM

Which Kd (HLA-A*02:03; [17]) does the source give for MSQMPPHPY here?
The Kd was ≥ 20 µM.

And the Kd (HLA-A*02:11; [17])?
The Kd was ≥ 20 µM.

What about the Kd (HLA-A*02:12; [17]) of the same sequence?
The Kd was ≥ 20 µM.

What about the Kd (HLA-A*02:16; [17]) of the same sequence?
Its Kd is ≥ 20 µM.

And the Kd (HLA-A*02:19; [17])?
The Kd was ≥ 20 µM.

What about the Kd (HLA-A*03:01; [17]) of the same sequence?
The Kd was ≥ 20 µM.

And the Kd (HLA-A*11:01; [17])?
Its Kd is 0.377 µM.

And the Kd (HLA-A*23:01; [17])?
The Kd was ≥ 20 µM.

What about the Kd (HLA-A*24:03; [17]) of the same sequence?
Its Kd is ≥ 20 µM.

What about the Kd (HLA-A*68:02; [17]) of the same sequence?
The Kd was ≥ 20 µM.

What about the Kd (HLA-A*02:01 [8]; [17]) of the same sequence?
Its Kd is ≥ 20 µM.

What about the Kd (HLA-A*26:01 [9]; [17]) of the same sequence?
Its Kd is ≥ 20 µM.

What about the Kd (HLA-A*69:01 [10]; [17]) of the same sequence?
Its Kd is ≥ 20 µM.

What about the Kd (HLA-B*18:01; [17]) of the same sequence?
Its Kd is ≥ 20 µM.

And the Kd (HLA-B*27:03; [17])?
The Kd was ≥ 20 µM.

What about the Kd (HLA-B*39:01; [17]) of the same sequence?
Its Kd is ≥ 20 µM.

And the Kd (HLA-B*51:01; [17])?
Its Kd is ≥ 20 µM.

With YAIYTLGEM as the sequence, how does the Kd (HLA-C*03:03; [18]) read?
Its Kd is ≤ 0.001 µM.

What about the Kd (HLA-C*04:01; [18]) of the same sequence?
Its Kd is ≥ 20 µM.

Which results are given for YVDIIGLSV?
Kd (HLA-A*02:01 [1]; [19]): 0.056 µM; Kd (HLA-A*02:12; source organism: Brucella suis 1330): 0.005 µM; Kd (HLA-A*69:01 [3]; [19]): 0.0085 µM; Kd (HLA-C*05:01): 0.002 µM; Kd (HLA-A*02:50; source organism: Brucella abortus S19): 0.0091 µM

YYTEDQGQF was tested. Which Kd (HLA-A*23:01; [20]) did it give?
Its Kd is 0.0135 µM.

And the Kd (HLA-A*24:03; [20])?
The Kd was 0.0014 µM.

And the Kd (HLA-A*30:01 [12])?
The Kd was ≥ 20 µM.

What about the Kd (HLA-C*04:01; source organism: Kurkino virus) of the same sequence?
Its Kd is ≥ 20 µM.

Reference: the Immune Epitope Database (IEDB)
